From publication PMC10761769, “Allosteric control of dynamin-related protein 1 through a disordered C-terminal Short Linear Motif” (Nature Communications, 2024)
Values joined by “and” are separate entries in the source; they are usually repeats but may differ in a detail not shown here. Equal values may be shown once. Each block holds one molecule with its values, some of them ahead of it.

Columns and labels:
R403A Drp1 = R403A Drp1 (UniProt O00429); assay: not stated; R403A Drp1 in solution (Supplementary Fig. 4a); the same protein was used as a dimer for SEC-SAXS at ~34 uM in buffer A with 1 mM DTT
[1] = target: the molecule itself; assay: negative-stain EM; 2D class averages of single particles, Drp1 at 2 uM, apo state
[2] = target: the molecule itself; assay: SEC-MALS; Drp1 in the nucleotide-free apo state, Superose 6 10/300 GL; injected at 5 uM, ~0.5 uM at peak detection; other injection concentrations in the supplement
[3] = target: human dynamin-related protein 1 (Drp1) isoform 3, wild type, N-terminal His6 tag (human) (UniProt O00429)
[4] = target: the molecule itself; assay: SEC-MALS; full-length GIPC-1, unliganded, 10 uM at injection, Superdex 200 10/300 GL

- stoichiometry N (R403A Drp1): 2
Molecule: R403A Drp1 (from UniProt O00429-4 1-699) (enzyme)

B1: human Drp1 isoform 3 ΔCT4 (last four residues of the CT-SLiM removed) (enzyme, UniProt O00429-4 1-695, looked up)
chain: MEALIPVINKLQDVFNTVGADIIQLPQIVVVGTQSSGKSSVLESLVGRDLLPRGTGIVTRRPLILQLVHVSQEDKRKTTGEENGVEAEEWGKFLHTKNKLYTDFDEIRQEIENETERISGNNKGVSPEPIHLKIFSPNVVNLTLVDLPGMTKVPVGDQPKDIELQIRELILRFISNPNSIILAVTAANTDMATSEALKISREVDPDGRRTLAVITKLDLMDAGTDAMDVLMGRVIPVKLGIIGVVNRSQLDINNKKSVTDSIRDEYAFLQKKYPSLANRNGTKYLARTLNRLLMHHIRDCLPELKTRINVLAAQYQSLLNSYGEPVDDKSATLLQLITKFATEYCNTIEGTAKYIETSELCGGARICYIFHETFGRTLESVDPLGGLNTIDILTAIRNATGPRPALFVPEVSFELLVKRQIKRLEEPSLRCVELVHEEMQRIIQHCSNYSTQELLRFPKLHDAIVEVVTCLLRKRLPVTNEMVHNLVAIELAYINTKHPDFADACGLMNNNIEEQRRNRLARELPSAVSRDKVASGGGGVGDGVQEPTTGNWRGMLKTSKAEELLAEEKSKPIPIMPASPQKGHAVNLLDVPVPVARKLSAREQRDCEVIERLIKSYFLIVRKNIQDSVPKAVMHFLVNHVKDTLQSELVGQLYKSSLLDDLLTESEDMAQRRKEAADMLKALQGASQIIAEIRE
notes: Drp1, human, isoform 3, without the last four residues (T696-W699) of the 699; numbers count on: isoform 3 (699 residues); Limits worked out from 'the last four residues removed' and W699 as the last residue; also called ΔCT4 Drp1; ΔCT4 variant
- stoichiometry N [1]: 2
- stoichiometry N [2]: 4

B2: human dynamin-related protein 1 (Drp1) isoform 3, wild type, N-terminal His6 tag (enzyme, UniProt O00429-4 1-699, looked up)
chain: MEALIPVINKLQDVFNTVGADIIQLPQIVVVGTQSSGKSSVLESLVGRDLLPRGTGIVTRRPLILQLVHVSQEDKRKTTGEENGVEAEEWGKFLHTKNKLYTDFDEIRQEIENETERISGNNKGVSPEPIHLKIFSPNVVNLTLVDLPGMTKVPVGDQPKDIELQIRELILRFISNPNSIILAVTAANTDMATSEALKISREVDPDGRRTLAVITKLDLMDAGTDAMDVLMGRVIPVKLGIIGVVNRSQLDINNKKSVTDSIRDEYAFLQKKYPSLANRNGTKYLARTLNRLLMHHIRDCLPELKTRINVLAAQYQSLLNSYGEPVDDKSATLLQLITKFATEYCNTIEGTAKYIETSELCGGARICYIFHETFGRTLESVDPLGGLNTIDILTAIRNATGPRPALFVPEVSFELLVKRQIKRLEEPSLRCVELVHEEMQRIIQHCSNYSTQELLRFPKLHDAIVEVVTCLLRKRLPVTNEMVHNLVAIELAYINTKHPDFADACGLMNNNIEEQRRNRLARELPSAVSRDKVASGGGGVGDGVQEPTTGNWRGMLKTSKAEELLAEEKSKPIPIMPASPQKGHAVNLLDVPVPVARKLSAREQRDCEVIERLIKSYFLIVRKNIQDSVPKAVMHFLVNHVKDTLQSELVGQLYKSSLLDDLLTESEDMAQRRKEAADMLKALQGASQIIAEIRETHLW
notes: dynamin-related protein 1 (Drp1), human, isoform 3, 699 residues, ends in the CT-SLiM R694-W699 (RETHLW); numbers count on: isoform 3 (699 residues); also called WT Drp1; WT
- stoichiometry N [2]: 2 and 4

B3: human Drp1 isoform 3 ΔCT6 (last six residues, the whole CT-SLiM, removed) (enzyme, UniProt O00429-4 1-693, looked up)
chain: MEALIPVINKLQDVFNTVGADIIQLPQIVVVGTQSSGKSSVLESLVGRDLLPRGTGIVTRRPLILQLVHVSQEDKRKTTGEENGVEAEEWGKFLHTKNKLYTDFDEIRQEIENETERISGNNKGVSPEPIHLKIFSPNVVNLTLVDLPGMTKVPVGDQPKDIELQIRELILRFISNPNSIILAVTAANTDMATSEALKISREVDPDGRRTLAVITKLDLMDAGTDAMDVLMGRVIPVKLGIIGVVNRSQLDINNKKSVTDSIRDEYAFLQKKYPSLANRNGTKYLARTLNRLLMHHIRDCLPELKTRINVLAAQYQSLLNSYGEPVDDKSATLLQLITKFATEYCNTIEGTAKYIETSELCGGARICYIFHETFGRTLESVDPLGGLNTIDILTAIRNATGPRPALFVPEVSFELLVKRQIKRLEEPSLRCVELVHEEMQRIIQHCSNYSTQELLRFPKLHDAIVEVVTCLLRKRLPVTNEMVHNLVAIELAYINTKHPDFADACGLMNNNIEEQRRNRLARELPSAVSRDKVASGGGGVGDGVQEPTTGNWRGMLKTSKAEELLAEEKSKPIPIMPASPQKGHAVNLLDVPVPVARKLSAREQRDCEVIERLIKSYFLIVRKNIQDSVPKAVMHFLVNHVKDTLQSELVGQLYKSSLLDDLLTESEDMAQRRKEAADMLKALQGASQIIAEI
notes: Drp1, human, isoform 3, without the last six residues (R694-W699) of the 699; numbers count on: isoform 3 (699 residues); Limits worked out from 'the last six residues removed' and W699 as the last residue; also called ΔCT6 Drp1; ΔCT6 variant
- stoichiometry N [1]: 2
- stoichiometry N [2]: 4

- fission of free-standing lipid nanotubes by WT Drp1 with GIPC-1 at 1:1 (0.5 uM each), 1 mM GTP [3]: > 30%
B4: mouse GIPC-1 (GAIP interacting protein, C-terminus 1), full length (natural protein, UniProt Q9Z0G0 1-333, looked up)
chain: MPLGLGRRKKAPPLVENEEAEPSRSGLGVGEPGPLGGSAAGESQMGLPPPPAALRPRLVFHTQLAHGSPTGRIEGFTNVKELYGKIAEAFRLPAAEVMFCTLNTHKVDMDKLLGGQIGLEDFIFAHVKGQRKEVEVFKSEEALGLTITDNGAGYAFIKRIKEGSVIDHIQLISVGDMIEAINGQSLLGCRHYEVARLLKELPRGRTFTLKLTEPRKAFDMISQRSAGGHPGSGPQLGTGRGTLRLRSRGPATVEDLPSAFEEKAIEKVDDLLESYMGIRDTELAATMVELGKDKRNPDELAEALDERLGDFAFPDEFVFDVWGAIGDAKVGRY
notes: GIPC-1, mouse, full length; also called full-length GIPC-1; source: subcloned in pGEX-6P1, expressed and purified using standard protocols; GST removed by HRV3C; not shown: GST, N-terminal, cleaved
- stoichiometry N [4]: 2
